Measured values taken from patent US20200399385A1 (Bristol-Myers Squibb, published 2020).

T1: human OX40 on cells (human, UniProt P43489 29-277)
T1 sequence: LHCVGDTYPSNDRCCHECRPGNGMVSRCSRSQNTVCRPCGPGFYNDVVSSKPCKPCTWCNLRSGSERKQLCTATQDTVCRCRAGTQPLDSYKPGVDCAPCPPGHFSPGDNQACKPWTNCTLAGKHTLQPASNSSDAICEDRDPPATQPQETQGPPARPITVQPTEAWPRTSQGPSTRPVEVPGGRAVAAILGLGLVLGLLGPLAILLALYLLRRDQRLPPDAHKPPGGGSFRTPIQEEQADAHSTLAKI

T2: cynomolgus OX40 on cells (cynomolgus, UniProt P43489 29-277 (human entry))
T2 construct: also called cynoOX40-CHO
T2 chain: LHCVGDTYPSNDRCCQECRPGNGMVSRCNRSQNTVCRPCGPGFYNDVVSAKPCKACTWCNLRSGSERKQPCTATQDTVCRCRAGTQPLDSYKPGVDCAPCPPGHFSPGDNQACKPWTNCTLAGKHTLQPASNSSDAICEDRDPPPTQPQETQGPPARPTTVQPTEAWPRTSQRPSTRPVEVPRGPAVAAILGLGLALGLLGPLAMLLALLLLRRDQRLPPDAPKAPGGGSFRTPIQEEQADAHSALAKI

T3: his-tagged soluble human OX40 (huOX40-6xhis) (human, UniProt P43489 29-214)
T3 construct: made in-house; also called Human-OX40-6XHIS; hOX40; not shown: hexahistidine tag
T3 sequence: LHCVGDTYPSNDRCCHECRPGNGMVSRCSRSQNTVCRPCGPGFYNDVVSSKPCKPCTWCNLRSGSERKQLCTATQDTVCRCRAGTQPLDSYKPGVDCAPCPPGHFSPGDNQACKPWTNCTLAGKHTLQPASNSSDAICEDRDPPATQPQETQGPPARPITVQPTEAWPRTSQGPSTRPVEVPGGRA


How the values were obtained:
[1] = molecular target: T1, human OX40 on cells; assay: cell-based or functional assay
[2] = molecular target: T2, cynomolgus OX40 on cells; assay: FACS, activated cyno T cells; mean ± SD, n=4
Protocol: (§1) Briefly, cells were activated for several days before the binding assay in order to induce OX40 expression. Total leukocytes were isolated from cynomolgus macaque peripheral blood by lysis of red blood cells using an ammonium chloride buffer. The leukocytes were then cultured for four to five days with in flasks pre-coated with anti-human CD3 plus anti-human CD28 antibodies that cross-react with cynomolgus macaque, in the presence of recombinant human IL-2, in order to expand and activate T cells. On the day of the assay, the cells were harvested and stained with a titration of each anti-OX40 antibody. Bound antibodies were detected with a fluorescently conjugated anti-human IgG polyclonal secondary antibody, and the cells were co-stained for CD4 and CD25 to detect activated CD4 T cells. The fluorescence intensity of the staining was measured using a FACSCanto II flow cytometer (Becton Dickinson). The geometric mean fluorescence intensity (GMFI) or median fluorescence intensity (MedFI) of anti-OX40 antibody staining was calculated for the CD4+CD25+ population (FACSDiva software). Dose-response curves were generated and EC50s for antibody binding were calculated using GraphPad Prism software.

[3] = molecular target: T1, human OX40 on cells; assay: FACS, activated human T cells; mean ± SD, n=2
Protocol: (§2) Cells were activated for several days before the binding assay in order to induce OX40 expression. Briefly, PBMCs were cultured for three or four days with magnetic beads coated with anti-human CD3 plus anti-human CD28, in the presence of recombinant human IL-2. On the day of the assay, the beads were removed and the cells stained with a titration of each anti-OX40 antibody. Bound antibodies were detected with a fluorescently conjugated anti-human IgG polyclonal secondary antibody, and the cells were co-stained for CD4 and CD25 to detect activated CD4 T cells. The fluorescence intensity of the staining was measured using a FACSCanto II flow cytometer (Becton Dickinson). The geometric mean fluorescence intensity (GMFI) or median fluorescence intensity (MedFI) of anti-OX40 antibody staining was calculated for the CD4+CD25+ population (FACSDiva software). EC₅₀s for antibody binding were calculated using GraphPad Prism software.

[4] = molecular target: T3, his-tagged soluble human OX40 …; assay: SPR, mAb captured on anti-human CH1, OX40-6XHIS analyte, 1:1 fit
Protocol: The affinity of several OX40 antibodies for soluble human OX40 was tested by SPR analysis. […] Human-OX40-6XHIS antigen in either a single concentration of 400 nM or a 1:2 serial dilution from 400 nM was used. Experiments were carried out on BIACORE® T200 or BIACORE® 3000 SPR instruments. Data was fit to a 1:1 model.

[5] = molecular target: T1, human OX40 on cells; assay: FACS, blocking of OX40L-His (0.2 µg/mL) binding to hOX40-293 cells
Protocol: Briefly, 293 cells stably transfected with human OX40 were first pre-incubated with varying concentrations of anti-OX40 antibodies. […] The fluorescence intensity of the staining was measured using a FACSCanto II flow cytometer (Becton Dickinson).

[6] = molecular target: T1, human OX40 on cells; assay: FACS competition on HT1080-hOX40 cells against APC-OX40.1 (FL2 MFI); the table gives no unit, axis 'Ab conc nM'
Protocol: (§3) This experiment was performed to test the cross-blocking properties of various anti-OX40 antibodies to assess binding specificities. […] Cells were washed and if necessary further incubated in the presence of streptavidin-APC conjugate under the same conditions. After the final wash, cells were analyzed on a FACSCanto flow cytometer (BD Bioscience, San Jose, Calif.). Mean fluorescence intensity (MFI) signal was proportional to bound conjugated antibody.

[7] = molecular target: T1, human OX40 on cells; assay: FACS, activated human T cells; mean ± SD, n=3
Protocol: as §2

[8] = molecular target: T1, human OX40 on cells; assay: FACS competition on hOX40-293 cells against biotin-OX40.5 (spike biotOX.5 @ 0.4 ug/mL, streptavidin-APC); FL4-MFI falls from about 8700 to about 4100; the table gives no unit, axis in nM
Protocol: as §3

[9] = molecular target: T1, human OX40 on cells; assay: cell-based or functional assay; remark: listed apart in the source
[10] = molecular target: T2, cynomolgus OX40 on cells; assay: FACS, activated cyno T cells; mean ± SD, n=3
Protocol: as §1

[11] = molecular target: T1, human OX40 on cells; assay: FACS, activated primary human CD4+/CD25+ T cells, purified recombinant antibody, fluorescent anti-human IgG secondary (APC GMFI)
Protocol: as §2

[12] = molecular target: T2, cynomolgus OX40 on cells; assay: FACS, activated primary cynomolgus macaque CD4+/CD25+ T cells, purified recombinant antibody, fluorescent anti-human IgG secondary (APC GMFI)
Protocol: as §1
The same experiment was performed with anti-OX40 antibodies with variable region substitutions.

[13] = molecular target: T1, human OX40 on cells; assay: FACS competition on hOX40-293 cells against biotin-OX40.5 (spike biotOX.5 @ 0.4 ug/mL, streptavidin-APC); partial inhibition, FL4-MFI falls from about 8700 to about 6400; the table gives no unit, axis in nM
Protocol: as §3

[14] = molecular target: T1, human OX40 on cells; assay: FACS competition on HT1080-hOX40 cells against APC-OX40.1 (FL2 MFI); the table gives no unit, axis 'Ab conc nM'; NOTE: the curve of this antibody is flat at about 18000 (no inhibition), the printed fit value has no meaning as a potency
Protocol: as §3

Binder | Proliferation EC50, CD4 T cells + CHO-CD3-CD32A [1] [nM] | EC50 [2] [nM] | EC50 [3] [nM] | Kd [4] [nM] | koff [4] [s⁻¹] | kon [4] [M⁻¹ s⁻¹] | EC50 [5] [nM] | IC50 [6] [nM] | EC50 [7] [nM] | IFNγ EC50, CD4 T cells + CHO-CD3-CD32A [1] [nM] | IL-2 EC50, SEB PBMC, donor BMS-001 [9] [nM] | IL-2 EC50, SEB PBMC, donor BMS-004 [9] [nM] | IL-2 EC50, SEB PBMC, donor BMS-009 [9] [nM] | IL-2 EC50, SEB PBMC, donor BMS-012 [9] [nM] | IL-2 EC50, SEB PBMC, donor BMS-015 [9] [nM] | IL-2 EC50, SEB PBMC, donor BMS-016 [9] [nM] | IL-2 EC50, SEB PBMC, donor WB10024 [9] [nM] | IL-2 EC50, SEB PBMC, donor WB10025 [9] [nM] | IL-2 EC50, SEB PBMC, donor WB10026 [9] [nM] | IL-2 EC50, SEB PBMC, donor WB10027 [9] [nM] | also measured
8B11 (antibody, V domains shown, also called 8B11.H9.C1; 8B11.H9) VH: EIQLVQSGGGLVHPGGSLRLSCAGSGFTFSSDAMYWVRQAPGKGLEWVSAIGIGGDTYYTDSVMGRFTISRDNAKNSLYLQMNSLRAEDMAVYYCARLGMGYYFDYWGQGTLVTVSS VL: not shown | 0.022 | 0.2 | 0.14 | 10.5 | 0.00051 | 48000 | 0.45 | 1.41 |  |  |  |  |  |  |  |  |  |  |  |  | 
23H3 (antibody, V domains shown, also called 23H3.C6) VH: EVQLVQSGGGLVHPGGSLRLSCAGSGFTFSNYAMYWVRQAPGKGLEWVSAIGIGGDTFYTDSVKGRFTISRDNAKNSLSLQMNSLRAEDMAVYYCARMGTGYFFDYWGQGTLVTVSS VL: EIVLTQSPATLSLSPGERATLSCRASQSVSSYLAWYQQKPGQAPRLLIYDASNRATGIPARFSGSGSGTDFTLTISSLEPEDFAVYYCQQRSNWPLTFGPGTKVDIK | 0.028 | 0.18 |  | 3.6 | 0.000395 | 110000 | 0.38 |  | 0.15 |  |  |  |  |  |  |  |  |  |  |  | EC50 [8]: 3.68 nM
OX40.17 (antibody, human IgG1, kappa, V domains shown) VH: EVQLVESGGGLVQPGGSLRLSCAASGFTFSSYDMHWVRQTTGKGLEWVSVIGTAGDTYYPGSVKGRFTISRENAKNSLYLQMNSLRAGDTAVYYCARGGMGNYFDYWGQGTLVTVSS VL: EIVLTQSPATLSLSPGERATLSCRASQSVSSYLAWYQQKPGQAPRLLIYDASNRATGIPARFSGSGSGTDFTLTISSLEPEDFAVYYCQQRSNWPLTFGGGTKVEIKR | 0.009 |  |  |  |  |  |  |  | 0.26 | 0.044 | 0.41 | 1.03 | 0.97 | 1.74 | 1.16 | 1.4 | 1.06 | 1.35 | 1.68 | 1.15 | IL-2 EC50, SEB PBMC, donor WB10137 [9]: 0.92 nM; IL-2 Mean EC50, SEB PBMC, all donors [9]: 1.17 nM; EC50 [10]: 0.52 nM; EC50 (read off the curve) [11]: ~0.2 nM; EC50 (read off the curve) [12]: ~0.4 nM
3F4 (antibody, V domains shown, also called 3F4.G11.D2; 3F4.G11) VH: QVQLVQSGAEVKKPGASVKVSCKASGNTFTSYDVNWVRQATGQGLEWMGWMNPNSGNTGYAPKFQGRVTMTRNTSISTAYMELSSLRSEDTAVYYCARIYSSSYNWFDPWGQGTLVTVSS VL: EIVLTQSPATLSLSPGERATLSCRASQSVSSYLAWYQQKPGQAPRLLIYDASNRATGIPARFSGSGSGTDFTLTISSLEPEDFAVYYCQQRSNWPLTFGGGTKVEIK | 0.016 | 0.37 |  | 7.13 | 0.000379 | 53100 | 0.54 | 0.706 | 0.19 |  |  |  |  |  |  |  |  |  |  |  | EC50 [13]: 3.71 nM
6E1 (antibody, V domains shown, also called 6E1.A12.A2; 6E1.A12) VH: QVQLVESGGGVVQPGRSLRLSCAASGFTFSSFAMHWVRQAPGKGLEWVTVISYDGSIKYYTDSVKGRFTFSRDNSKNTLYLQMNSLRAEDTAVYYCTRDGNYGSARYFQHWGQGTLVTVSS VL: EIVLTQSPATLSLSPGERATLSCRASQSVSSYLAWYQQKPGQAPRLLIYDASNRATGIPARFSGSGSGTDFTLTISSLEPEDFAVYYCQQRSNWPYTFGQGTKLEIK | 0.014 | 0.77 | 0.97 | 11 | 0.00141 | 128000 |  |  |  |  |  |  |  |  |  |  |  |  |  |  | IC50 [14]: ~0.00249 nM
OX40.18 (antibody, human IgG1, kappa, V domains shown, g1f) VH: QVQLVQSGAEVKKPGASVKVSCKASGYTFTSYDVNWVRQATGQGLEWMGWMNPNSGNTGYAPKFQGRVTMTRDTSISTAYMELSSLRSEDTAVYYCARIYSSSYNWFDYWGQGTLVTVSS VL: EIVLTQSPATLSLSPGERATLSCRASQSVSSYLAWYQQKPGQAPRLLIYDASNRATGIPARFSGSGSGTDFTLTISSLEPEDFAVYYCQQRSNWPLTFGGGTKVEIKR | 0.23 |  | 3.15 |  |  |  |  |  |  | 0.49 | ~84.8 | 2.43 | 3.21 | ~1.67 | > 100 | > 100 | ~3.17 | ~1.14 | 3.02 | ~3.27 | IL-2 EC50, SEB PBMC, donor WB10137 [9]: > 100 nM; IL-2 Mean EC50, SEB PBMC, all donors [9]: 2.89 nM
